Source: the domain aggregation screens of Martell et al. (2025)

assay: soluble fraction after stress (log2 fold change); higher = more stays soluble; pooled small domains, quantitative proteomics; settings: stress: 50 degC
Outline: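 The stress applied to every library was 50°C. These custom libraries of small protein domains were pooled and measured at high throughput with quantitative proteomics as the read-out. Aggregation propensity is expressed as the base-two logarithm of the fold change in how much of each protein remains soluble. The higher the value, the more of that protein stays in solution.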

| Sequence | soluble fraction (log2) |
| --- | --- |
| HMSKQEFVDRLRVSLSGKISPASVEDNARYYEDYINTHIRLGEPEEDVLEGLGDPRLIARSIVAAESV | 0.0896 |
| HMLMSDEENAEFTKLYRQLVFKLHPDLNPNQTKDEENLWHKVQMAYKGGDLEEMRSLAIILDAQ | -0.0474 |
| HMQKYSTIIGVIELRQSGIGYRTTKKRYNIGNSTVTLIMNRFHELGLSLEELKAMPPKKVEEAFYPPE | -2.43 |
| HMHRIKRRNDTLVSALDSIAGIGAKRKKALLQHFGSVRAIKAVSAEEIAKVEGISPTLANQIFEAL | -0.605 |
| HMGGAYATVKLSSSSSQLNVRASASTASRVVARLSHGFRVEVLGVSGDWVKIRALGVEGYVARAYLALEGE | -0.374 |
| HMVETDQESSLIQAIYKYFEITGDNTFFDEKVGEKTVADRMEWAMDYLIQNRFSEEYGLIWGA | -0.2 |
| HMTLDEFTDLMNLFKTGHIEQKPVILYGYNYWTSLKSWFEFNNMKFPEMYIDGIINTVDEFKILYNKIF | -0.982 |
| HMNNGAEIGAEIRSLRKARGLTLEDLAAKIGRSVGYISQVERGISPLTIPNLKAIAEVLGVGINWFFRGEA | -0.552 |
| HMENMETSDIVARYSNMPGGIIEAFHEIVDRHGFLSQEAIIEAARGFGISVAEAYGVATFYSMFS | -0.336 |
| HMDTFSVAIGTKTPDGSSVGEVKTISRDELLLLEDEVAEDPTKEIIFTGGTKDSAQAALDGWIDYNTNLAS | 0.00318 |
| HMKYWTISDLYSKLEEDQVELGAFSEDSNKVTVLDRQGYEHVIKILSSDVPALTELFRKKKVRFAVAG | -0.132 |
| HMYRWSEEIFEKLRSDIMAALDLSREQNDEEIYRFIETEVEEYSQNNLLTLKEREQLEHLLFNSL | -1.3 |
| HMGNHMSFKMWGEQLQEAFRALETYDTQKAKTILNELVRFPIDSDITKALKGIISNIDDMMA | -0.535 |
| HMKQLRVLGIVKAGSILKNSDGSIEFVIEDSGKSLLVKYKGVIPDIFKDGVEAVVEGDLRGSVFNADKLF | -0.75 |
| HMELTVPDFTNMSLEDAINLAEKRDVRLEVTDSVFVKRLGRGFIYSQNPVAGSKVKKGRRILITINAIN | -2.53 |
| HMPLDISDDSKAVLKLLKNDSNELNTVKSASGLSNKKWDKTIKELTKNKIVSVSKTEDGLYIHLI | 0.202 |
| HMDEEAIELTQEVMKLPPKQREVILLYYYHGLTGKEIAKALGISGAAVSKRLKQAKNQLHFALK | -0.0921 |
| HMKQVTVGGTINAGGARIYADSYGNGGGRQTFGSDPIYTVLQERNGYILTRWHKLSSGYTGWFKKSDVSA | -0.298 |
| HMSIEIKTIDVKHADLFQLQDILRNLYPELNIVPDQRNNKLILQGKRELLVEAERLTLQLDTE | 0.0556 |
| HMLDLPEISARIMEVFETKDRATISELSKLTGTNINTIKKHLSSLVENNYLIKHGKTRGAWYTKST | -0.104 |
| HMEVVVPDFEKIYIRDLDKFVEGHNVRYEIVDSIYNLEKDKGTVVDQDPEPGSKVKHGRVIYLTVNAML | -0.207 |
| HMGKIINMSKVKQVLRLHTQGVSNRRIALDLGLYKGTVNSYIRKIKDHGYDIAEVLKLDDPVLESKLFA | -0.227 |
| HMWGQDVLFTIDKKEFKGKLLEQSDKHTTFLPDGQKTPQKIPNRLIKEIHLGSNKIIDFGNDFLI | -0.179 |
| HMLTDMSKIRKVLKLYGKGNSKLFISTYLSLSRNTVKKYISLFEVSGKTIEEILAKSDSELELLFSG | -0.919 |
| HMAPKVTLNETETAIFEKMQQEKQLLLSELRTHFDISNKLWDTSIKTLTKNQLLTVSKEADLLWIKL | -0.658 |
| HMELTKAELEVMQILWKLKKAFVGDILDRMVEPKPAYNTVSTVVRLLEKKGVVGHESFGKSHRYYPL | -3.22 |
| HMSPAVSLITGKLGAETYYKQGLKKAKEKDYEGALDDLIKAYEFFPDKKIKTQVDKLASFLGKPPIL | 0.0669 |
| HMGVVEEVAADFEGRAVVGKVDVDEQTELARRFGIMSIPTLVVMKGGKVVEQAVGARGKADIAAMLERH | 0.0848 |

| Sequence | soluble fraction (log2) |
| --- | --- |
| HMDNMTEMQKAVTALIEKSGGSIDNLSVIYDHLKKKYPSFDLKDYGYSRFSSFLRSMENIMVRGNAVTLRS | 0.0337 |
| HMNNVDIMGRMVYDDQHREVINFGKYKGVLVTEVLKKDPGYFSWIQQGDFPSDMKRIMMAIKLRM | -2.3 |
| HMSRGTLFVDVRGAVAKPGVYELPEKSRVFQAVEAAGGLLPEALERLVNQAAELTDGQQVYIPFEGEE | 0.296 |
| HMQPVLSDAEVNDLKNIAGGERGYNQLMDWAGNNLTAQDAKSYDDVLATGNKAAISFAIKALMGQYEDAN | 0.047 |
| HMTTARERVYKTLQQWIVNGTLLPEERLNDVELARYFSVSRTPVREALQMLAEQKLVKMVPSSGTFVA | -0.769 |
| HMYMTTADADMWKYVNTGRYNNDIQLMEEYKNRSMDSFEVITPEQQRKYNKAAMNLNSYYAWADPSYKPNP | -0.257 |
| HMNTLSPVRILAILDGRSSMAEWQLAEELGVSIDNLSEILNKMSTDGQIRLVPSEDGRMVVP | 0.265 |
| HMGTGADKNSWTIGDKVKHRKWGTGTVVKVTGAGEDAELDIAFKSEGIKRLLAAFAPIEKVK | -0.034 |
| HMAPASADQLIDQLNEKVKAKDDKGVAALLTAAQTKMAELAQKDPKEAQAYVAKLQQWMQSNSENIKAALK | 0.157 |
| HMPALPGNELLRNLMLEHGLKQVDLAEIGSQGVVSEILSGKRRINRRHADLLARRFSLPAELFSR | -0.133 |
| HMHYKLIIFENHTKSTSLDITPEQARQILGVTDYTPEQYEILAEITNRPASYFMDDLVDYYVD | -2.39 |
| HMALPEHIEPFLRGLGQALAEGDSYEDVQERLLRAYPYLDSTEFQTALARVIFISDLWGRLN | -1.55 |
| HMENYQIETFVKFIEESTGEDGVAFEDLFQNFTSRPAVITMFLALLEALRRNSIRIFQKEEFSQILIYPK | 0.084 |
| HMQLTPAQHAILAYAIEHTGGKIEWFPDNIKGGARTKVLEGLFNKALITRDSTDWFVAAEGYDALGR | -0.549 |
| HMDLLESLSAREREVVHLASRGLVNKLIARELGITERTVKAHLSSAFEKLHIKDRVHLALLVNGI | -1.45 |
| HMHPARITATVRVGEGDLVDIEREAELGGPIHSKGVMILSSFLGARYARTVPLSLSASLVFEQSY | 0.0114 |
| HMTAQGDSSDAVQRAITEILRHEDPSHPFSDQQLVIKLRTMDISVSRRTVTKYRKLLHIPSSTHRK | -2.74 |
| HMKNLADNIVALRKKHGLSQEQFAEKIDVTRQAVSNWERRIATPDVETIDLIAKLFDTDLTALVNG | -0.0311 |
| HMNPSAFSEYSFELLQSALLKKKIDENLSNQTIARDAGVSEAFVQKVLTNNVKRPSVKNRVRMISYLGLD | -1.22 |
| HMGFPAPFDGKAVAELRRRLGLTRRGLAEELSVSPSTVDKWEQGDVALRSPALTILKILWHQGLKALPP | -1.52 |
| HMLSVRNRMSDVLKSLDDGEFHRFESLFNLEEGRLGVVVTFLAMLELAKEMLVEIVQNESLGPIYLKSR | -0.0774 |
| HMNGLPDLSRYTGVSIVDGLASVGSDSSFAYRAKIAETLGISDYKGSAGQNLEMIRKLGGKV | -0.291 |
| HMASLIGEEKALQIALEHAGVALENVAYSQVKLENDDGRWEYDTEFYSGSKEYDYEIDASTGEILGYDHD | -0.0337 |
| HMTTTYEINDEMLKPLILEIFNKSKQRFGSTKIAPVLKREGYTASIAKVKTLMNELGIKPVNA | -0.319 |
| HMEKIRIQKYLSERGVMSRRAADSALAEGRIAVNGVTARPGDKIDPSSDTLTIDGRIVTTGTAP | 0.00802 |
| HMRGETSYANDIIKRLKQANLIVVEGTLYPLLNRLKKDGLLHYEWRESQQGPPRKYYGLTEEGEA | -0.132 |
| HMANPMFAEIKKVQKQLNEMGYQAGPADGLWGNKTENAVKLLLSDNNLKWDGTFDQNEIKIIEEIFLSND | -0.256 |
